According to the supplement of paper PMC10065799, “High-throughput profiling of sequence recognition by tyrosine kinases and SH2 domains using bacterial peptide display” (eLife, 2023):
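Note: 11-residue human phosphosite peptides and single-mutation variants displayed on the E. coli surface, counted by deep sequencing, each peptide's frequency after selection divided by its frequency in the unselected input library; frequency after pTyr selection over input frequency; kinase dosed for 20-30% of maximal phosphorylation in three min.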

Each sequence was assayed against FGFR3 (UniProt P22607) (assay: phosphorylation enrichment, bacterial display (enrichment ratio); higher = better substrate or ligand; peptides without Tyr show the background).
FGFR3, sequence (P22607 whole entry, looked up): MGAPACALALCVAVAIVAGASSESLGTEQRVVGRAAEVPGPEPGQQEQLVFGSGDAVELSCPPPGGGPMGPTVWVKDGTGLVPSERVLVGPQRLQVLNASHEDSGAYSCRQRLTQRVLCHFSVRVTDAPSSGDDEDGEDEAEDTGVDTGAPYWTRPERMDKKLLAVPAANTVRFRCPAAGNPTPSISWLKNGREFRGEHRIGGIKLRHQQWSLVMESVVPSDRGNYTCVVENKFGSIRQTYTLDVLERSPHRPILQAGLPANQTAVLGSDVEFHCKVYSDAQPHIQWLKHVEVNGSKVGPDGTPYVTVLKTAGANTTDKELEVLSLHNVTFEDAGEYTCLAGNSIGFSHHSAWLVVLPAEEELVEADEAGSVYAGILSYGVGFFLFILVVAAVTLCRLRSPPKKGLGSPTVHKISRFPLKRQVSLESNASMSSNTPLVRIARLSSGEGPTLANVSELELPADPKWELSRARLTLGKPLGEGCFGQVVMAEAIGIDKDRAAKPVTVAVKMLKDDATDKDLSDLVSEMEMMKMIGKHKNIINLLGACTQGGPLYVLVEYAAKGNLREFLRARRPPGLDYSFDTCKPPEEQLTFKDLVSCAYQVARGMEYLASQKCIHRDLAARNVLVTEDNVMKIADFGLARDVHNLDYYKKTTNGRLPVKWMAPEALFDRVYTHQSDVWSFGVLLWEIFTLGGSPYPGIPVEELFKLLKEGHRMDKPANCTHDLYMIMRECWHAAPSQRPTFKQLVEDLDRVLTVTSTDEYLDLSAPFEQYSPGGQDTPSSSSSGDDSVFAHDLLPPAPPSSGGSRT
IMAYFYMCDSA [CASD1_Y382_R386S] was tested, and the phosphorylation enrichment was 2.25. In the case of RLMLQYDAVVN [SLC25A32_Y152], the phosphorylation enrichment is reported as 0.674. RTMPDYTSFNT [EPHB2_Y912_I909M] showed a phosphorylation enrichment of 1. FADIAYNYRHG [PAH_Y166] gave a phosphorylation enrichment of 0.561. With SREDIYKRNTE [PDE4DIP_Y45_I49T] the phosphorylation enrichment was 0.696. For RENGPYFASFP [GDAP2_Y487_T489A_YF], the phosphorylation enrichment was 0.891. VGTKRYMASEV [ACVRL1_Y375_P378S] gave a phosphorylation enrichment of 0.333. QLRPGYFPIPV [BAG3_Y93_I94F] gave a phosphorylation enrichment of 0.56. In the case of HIAKGYRRDNP [HARS1_Y156_V155G], the phosphorylation enrichment is reported as 0.326. With KASGKYFAMKI [AKT3_Y173_YF] the phosphorylation enrichment was 0.421. With KDFNKYVAFIE [KDM4B_Y31_YF] the phosphorylation enrichment was 0.581. With MGSYNYLGFPR [SPTLC2_Y178_A182P] the phosphorylation enrichment was 1.48. Work on HNLNYYKKTTN [FGFR3_Y648_D646N] yielded a phosphorylation enrichment of 0.531. For WVFNHYRWIIW [BRCA2_Y2624_YF], the phosphorylation enrichment was 0.824. With MSRDVYSTDFF [NTRK2_Y702_YF] the phosphorylation enrichment was 0.718. For NNKKDYFDMFE [SLC26A3_Y526_K521N_YF], the phosphorylation enrichment was 3.74. For NWGSPYKSNGC [ZNF347_Y261], the phosphorylation enrichment was 0.546. Work on FTNRNYDLDFD [MYC_Y12_YF] yielded a phosphorylation enrichment of 0.696. Work on KQNSLYSFSDH [CCDC82_Y331] yielded a phosphorylation enrichment of 0.536. DPLLTHRFPPK [LMNA_Y481_Y481H] was tested, and the phosphorylation enrichment was 0.43. Sequence MFDKEYFSVHN [MET_Y1234_YF] has a phosphorylation enrichment of 1.31. For MSSLFYANALF [HOXB7_Y6_T9A_YF], the phosphorylation enrichment was 0.743. With GVTLLYFGRDN [ADGRD1_Y85_Y89D_YF] the phosphorylation enrichment was 0.737. With EHIEFYELDKK [PMM2_Y145_R141H] the phosphorylation enrichment was 0.571. Work on LRRREYQRQDY [PRKRIP1_Y90] yielded a phosphorylation enrichment of 0.683. For NTVLGYFIGRI [GARS1_Y408], the phosphorylation enrichment was 0.617. KASIMYPSSNC [CXCL11_Y52_N55S] showed a phosphorylation enrichment of 0.467. HMEAVYIDIAD [PITPNA_Y140_V136M] showed a phosphorylation enrichment of 10.2. For KLRMESLSLMH [NCKIPSD_Y660_Y660S], the phosphorylation enrichment was 0.476. ITLKGYNLSNS [GNPTAB_Y728_K732N] was tested, and the phosphorylation enrichment was 0.618. QGIFGYHHFMQ [UFSP2_Y287_YF] gave a phosphorylation enrichment of 0.93. In the case of GFSDPYVKAFL [SYT3_Y470_S474F], the phosphorylation enrichment is reported as 0.729. With CEHRGSLYLAI [TEK_Y897_Y897S] the phosphorylation enrichment was 0.847.

The sequences below were run on Fer (mouse) in the same assay as above.
For IMAYFYMCDSA [CASD1_Y382_R386S], the phosphorylation enrichment was 0.597. RLMLQYDAVVN [SLC25A32_Y152] showed a phosphorylation enrichment of 0.662. Sequence RTMPDYTSFNT [EPHB2_Y912_I909M] has a phosphorylation enrichment of 0.705. Sequence FADIAYNYRHG [PAH_Y166] has a phosphorylation enrichment of 0.456. With SREDIYKRNTE [PDE4DIP_Y45_I49T] the phosphorylation enrichment was 0.463. In the case of RENGPYFASFP [GDAP2_Y487_T489A_YF], the phosphorylation enrichment is reported as 0.627. For VGTKRYMASEV [ACVRL1_Y375_P378S], the phosphorylation enrichment was 0.38. For QLRPGYFPIPV [BAG3_Y93_I94F], the phosphorylation enrichment was 0.42. HIAKGYRRDNP [HARS1_Y156_V155G] gave a phosphorylation enrichment of 0.438. KASGKYFAMKI [AKT3_Y173_YF] was tested, and the phosphorylation enrichment was 0.34. KDFNKYVAFIE [KDM4B_Y31_YF] showed a phosphorylation enrichment of 0.434. Work on MGSYNYLGFPR [SPTLC2_Y178_A182P] yielded a phosphorylation enrichment of 0.59. HNLNYYKKTTN [FGFR3_Y648_D646N] was tested, and the phosphorylation enrichment was 0.461. WVFNHYRWIIW [BRCA2_Y2624_YF] was tested, and the phosphorylation enrichment was 0.456. Work on MSRDVYSTDFF [NTRK2_Y702_YF] yielded a phosphorylation enrichment of 0.486. For NNKKDYFDMFE [SLC26A3_Y526_K521N_YF], the phosphorylation enrichment was 0.485. In the case of NWGSPYKSNGC [ZNF347_Y261], the phosphorylation enrichment is reported as 0.48. Work on FTNRNYDLDFD [MYC_Y12_YF] yielded a phosphorylation enrichment of 0.543. Work on KQNSLYSFSDH [CCDC82_Y331] yielded a phosphorylation enrichment of 3.95. In the case of DPLLTHRFPPK [LMNA_Y481_Y481H], the phosphorylation enrichment is reported as 0.36. MFDKEYFSVHN [MET_Y1234_YF] showed a phosphorylation enrichment of 0.451. MSSLFYANALF [HOXB7_Y6_T9A_YF] gave a phosphorylation enrichment of 1.78. Work on GVTLLYFGRDN [ADGRD1_Y85_Y89D_YF] yielded a phosphorylation enrichment of 0.481. With EHIEFYELDKK [PMM2_Y145_R141H] the phosphorylation enrichment was 0.456. LRRREYQRQDY [PRKRIP1_Y90] gave a phosphorylation enrichment of 0.504. NTVLGYFIGRI [GARS1_Y408] showed a phosphorylation enrichment of 0.479. Sequence KASIMYPSSNC [CXCL11_Y52_N55S] has a phosphorylation enrichment of 0.452. Sequence HMEAVYIDIAD [PITPNA_Y140_V136M] has a phosphorylation enrichment of 8.49. For KLRMESLSLMH [NCKIPSD_Y660_Y660S], the phosphorylation enrichment was 0.388. In the case of ITLKGYNLSNS [GNPTAB_Y728_K732N], the phosphorylation enrichment is reported as 0.433. For QGIFGYHHFMQ [UFSP2_Y287_YF], the phosphorylation enrichment was 0.857. GFSDPYVKAFL [SYT3_Y470_S474F] gave a phosphorylation enrichment of 0.565. In the case of CEHRGSLYLAI [TEK_Y897_Y897S], the phosphorylation enrichment is reported as 0.573.

The sequences below were run against Fes (UniProt P07332) in the same assay as above.
Fes, sequence (P07332 whole entry, looked up): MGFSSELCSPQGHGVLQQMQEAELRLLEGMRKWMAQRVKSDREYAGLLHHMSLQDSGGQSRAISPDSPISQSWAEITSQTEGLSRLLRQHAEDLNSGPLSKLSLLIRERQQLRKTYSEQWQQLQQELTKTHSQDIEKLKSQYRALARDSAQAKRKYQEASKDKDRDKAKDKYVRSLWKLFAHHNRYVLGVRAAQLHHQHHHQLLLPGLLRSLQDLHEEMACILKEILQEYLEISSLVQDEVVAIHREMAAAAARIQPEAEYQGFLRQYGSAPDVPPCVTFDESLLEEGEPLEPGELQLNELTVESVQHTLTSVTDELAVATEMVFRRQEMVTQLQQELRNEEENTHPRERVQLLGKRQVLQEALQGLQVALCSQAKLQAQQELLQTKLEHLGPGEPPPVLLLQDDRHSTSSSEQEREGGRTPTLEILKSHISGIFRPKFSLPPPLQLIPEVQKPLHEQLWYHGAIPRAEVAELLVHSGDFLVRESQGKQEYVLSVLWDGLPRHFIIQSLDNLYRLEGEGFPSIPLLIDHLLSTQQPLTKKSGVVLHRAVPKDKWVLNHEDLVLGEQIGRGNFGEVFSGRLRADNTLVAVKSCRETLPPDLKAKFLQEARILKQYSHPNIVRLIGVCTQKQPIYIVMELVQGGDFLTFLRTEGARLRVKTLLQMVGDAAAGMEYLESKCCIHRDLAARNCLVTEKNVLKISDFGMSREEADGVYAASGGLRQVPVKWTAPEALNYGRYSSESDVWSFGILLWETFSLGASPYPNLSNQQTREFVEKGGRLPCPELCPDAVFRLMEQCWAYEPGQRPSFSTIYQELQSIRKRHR
In the case of IMAYFYMCDSA [CASD1_Y382_R386S], the phosphorylation enrichment is reported as 1.5. RLMLQYDAVVN [SLC25A32_Y152] was tested, and the phosphorylation enrichment was 1.67. RTMPDYTSFNT [EPHB2_Y912_I909M] showed a phosphorylation enrichment of 0.947. FADIAYNYRHG [PAH_Y166] gave a phosphorylation enrichment of 0.887. Work on SREDIYKRNTE [PDE4DIP_Y45_I49T] yielded a phosphorylation enrichment of 1.05. Sequence RENGPYFASFP [GDAP2_Y487_T489A_YF] has a phosphorylation enrichment of 0.924. In the case of VGTKRYMASEV [ACVRL1_Y375_P378S], the phosphorylation enrichment is reported as 0.602. QLRPGYFPIPV [BAG3_Y93_I94F] was tested, and the phosphorylation enrichment was 0.679. HIAKGYRRDNP [HARS1_Y156_V155G] gave a phosphorylation enrichment of 0.539. Sequence KASGKYFAMKI [AKT3_Y173_YF] has a phosphorylation enrichment of 0.626. KDFNKYVAFIE [KDM4B_Y31_YF] showed a phosphorylation enrichment of 0.836. Sequence MGSYNYLGFPR [SPTLC2_Y178_A182P] has a phosphorylation enrichment of 0.748. With HNLNYYKKTTN [FGFR3_Y648_D646N] the phosphorylation enrichment was 0.507. WVFNHYRWIIW [BRCA2_Y2624_YF] gave a phosphorylation enrichment of 1.39. MSRDVYSTDFF [NTRK2_Y702_YF] showed a phosphorylation enrichment of 0.732. Work on NNKKDYFDMFE [SLC26A3_Y526_K521N_YF] yielded a phosphorylation enrichment of 1.16. NWGSPYKSNGC [ZNF347_Y261] showed a phosphorylation enrichment of 1.09. FTNRNYDLDFD [MYC_Y12_YF] showed a phosphorylation enrichment of 1.42. For KQNSLYSFSDH [CCDC82_Y331], the phosphorylation enrichment was 0.907. In the case of DPLLTHRFPPK [LMNA_Y481_Y481H], the phosphorylation enrichment is reported as 0.521. MFDKEYFSVHN [MET_Y1234_YF] showed a phosphorylation enrichment of 1.03. MSSLFYANALF [HOXB7_Y6_T9A_YF] gave a phosphorylation enrichment of 1.21. Work on GVTLLYFGRDN [ADGRD1_Y85_Y89D_YF] yielded a phosphorylation enrichment of 1.04. With EHIEFYELDKK [PMM2_Y145_R141H] the phosphorylation enrichment was 1.1. In the case of LRRREYQRQDY [PRKRIP1_Y90], the phosphorylation enrichment is reported as 0.64. With NTVLGYFIGRI [GARS1_Y408] the phosphorylation enrichment was 1.09. With KASIMYPSSNC [CXCL11_Y52_N55S] the phosphorylation enrichment was 0.653. For HMEAVYIDIAD [PITPNA_Y140_V136M], the phosphorylation enrichment was 2.85. For KLRMESLSLMH [NCKIPSD_Y660_Y660S], the phosphorylation enrichment was 0.782. In the case of ITLKGYNLSNS [GNPTAB_Y728_K732N], the phosphorylation enrichment is reported as 0.639. Work on QGIFGYHHFMQ [UFSP2_Y287_YF] yielded a phosphorylation enrichment of 1.41. GFSDPYVKAFL [SYT3_Y470_S474F] showed a phosphorylation enrichment of 1. Work on CEHRGSLYLAI [TEK_Y897_Y897S] yielded a phosphorylation enrichment of 1.24.

Each sequence was assayed against Fyn (UniProt P06241) in the same assay as above.
Fyn, sequence (P06241 whole entry, looked up): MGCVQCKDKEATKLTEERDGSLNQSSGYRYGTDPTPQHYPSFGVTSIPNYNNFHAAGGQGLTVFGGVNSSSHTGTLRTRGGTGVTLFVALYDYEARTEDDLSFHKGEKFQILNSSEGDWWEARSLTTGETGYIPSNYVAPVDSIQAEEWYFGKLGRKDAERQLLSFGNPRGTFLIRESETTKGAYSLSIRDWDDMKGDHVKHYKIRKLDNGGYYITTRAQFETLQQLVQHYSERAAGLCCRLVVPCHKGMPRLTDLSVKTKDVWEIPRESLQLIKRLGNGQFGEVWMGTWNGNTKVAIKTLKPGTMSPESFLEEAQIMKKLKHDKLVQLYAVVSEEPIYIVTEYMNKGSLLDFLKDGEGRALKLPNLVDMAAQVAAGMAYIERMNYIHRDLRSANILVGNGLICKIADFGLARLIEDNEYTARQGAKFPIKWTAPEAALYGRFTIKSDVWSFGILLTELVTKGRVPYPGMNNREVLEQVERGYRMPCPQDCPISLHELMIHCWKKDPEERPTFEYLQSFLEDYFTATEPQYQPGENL
Work on IMAYFYMCDSA [CASD1_Y382_R386S] yielded a phosphorylation enrichment of 0.523. RLMLQYDAVVN [SLC25A32_Y152] gave a phosphorylation enrichment of 0.57. RTMPDYTSFNT [EPHB2_Y912_I909M] was tested, and the phosphorylation enrichment was 1.07. FADIAYNYRHG [PAH_Y166] gave a phosphorylation enrichment of 0.423. SREDIYKRNTE [PDE4DIP_Y45_I49T] showed a phosphorylation enrichment of 0.409. With RENGPYFASFP [GDAP2_Y487_T489A_YF] the phosphorylation enrichment was 0.568. With VGTKRYMASEV [ACVRL1_Y375_P378S] the phosphorylation enrichment was 0.4. With QLRPGYFPIPV [BAG3_Y93_I94F] the phosphorylation enrichment was 0.536. Work on HIAKGYRRDNP [HARS1_Y156_V155G] yielded a phosphorylation enrichment of 0.427. Work on KASGKYFAMKI [AKT3_Y173_YF] yielded a phosphorylation enrichment of 0.344. KDFNKYVAFIE [KDM4B_Y31_YF] gave a phosphorylation enrichment of 0.513. In the case of MGSYNYLGFPR [SPTLC2_Y178_A182P], the phosphorylation enrichment is reported as 0.511. Sequence HNLNYYKKTTN [FGFR3_Y648_D646N] has a phosphorylation enrichment of 0.491. WVFNHYRWIIW [BRCA2_Y2624_YF] showed a phosphorylation enrichment of 0.343. MSRDVYSTDFF [NTRK2_Y702_YF] gave a phosphorylation enrichment of 2.65. NNKKDYFDMFE [SLC26A3_Y526_K521N_YF] was tested, and the phosphorylation enrichment was 0.415. With NWGSPYKSNGC [ZNF347_Y261] the phosphorylation enrichment was 0.373. FTNRNYDLDFD [MYC_Y12_YF] was tested, and the phosphorylation enrichment was 0.5. KQNSLYSFSDH [CCDC82_Y331] showed a phosphorylation enrichment of 5.24. Sequence DPLLTHRFPPK [LMNA_Y481_Y481H] has a phosphorylation enrichment of 0.411. Work on MFDKEYFSVHN [MET_Y1234_YF] yielded a phosphorylation enrichment of 0.488. MSSLFYANALF [HOXB7_Y6_T9A_YF] showed a phosphorylation enrichment of 0.762. Sequence GVTLLYFGRDN [ADGRD1_Y85_Y89D_YF] has a phosphorylation enrichment of 0.353. EHIEFYELDKK [PMM2_Y145_R141H] was tested, and the phosphorylation enrichment was 0.566. LRRREYQRQDY [PRKRIP1_Y90] was tested, and the phosphorylation enrichment was 0.706. NTVLGYFIGRI [GARS1_Y408] was tested, and the phosphorylation enrichment was 0.427. In the case of KASIMYPSSNC [CXCL11_Y52_N55S], the phosphorylation enrichment is reported as 0.434. HMEAVYIDIAD [PITPNA_Y140_V136M] showed a phosphorylation enrichment of 3.86. KLRMESLSLMH [NCKIPSD_Y660_Y660S] gave a phosphorylation enrichment of 0.45. For ITLKGYNLSNS [GNPTAB_Y728_K732N], the phosphorylation enrichment was 0.488. In the case of QGIFGYHHFMQ [UFSP2_Y287_YF], the phosphorylation enrichment is reported as 0.615. In the case of GFSDPYVKAFL [SYT3_Y470_S474F], the phosphorylation enrichment is reported as 0.481. CEHRGSLYLAI [TEK_Y897_Y897S] showed a phosphorylation enrichment of 0.552.
